Measured values as given in publication PMC6420155.
Where a chain is given by its changes, count along the chain named. Names may count otherwise.

T1: M2 muscarinic acetylcholine receptor, C-terminally tagged with Renilla luciferase variant 8, P08172
T1 chain: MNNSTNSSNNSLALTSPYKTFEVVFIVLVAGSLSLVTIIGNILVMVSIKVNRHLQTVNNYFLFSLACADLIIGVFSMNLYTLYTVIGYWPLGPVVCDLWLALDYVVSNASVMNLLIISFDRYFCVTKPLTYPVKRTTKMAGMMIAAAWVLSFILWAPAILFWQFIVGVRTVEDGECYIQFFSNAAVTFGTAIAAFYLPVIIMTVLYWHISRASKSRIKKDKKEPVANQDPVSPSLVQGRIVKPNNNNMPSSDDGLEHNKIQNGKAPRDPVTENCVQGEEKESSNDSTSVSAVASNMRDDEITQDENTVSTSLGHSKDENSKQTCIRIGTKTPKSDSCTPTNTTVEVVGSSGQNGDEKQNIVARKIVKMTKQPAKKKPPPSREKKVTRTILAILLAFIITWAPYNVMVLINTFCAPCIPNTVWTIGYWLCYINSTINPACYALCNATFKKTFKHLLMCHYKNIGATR

T2: dopamine D1 receptor, C-terminally tagged with Renilla luciferase variant 8, P21728
T2 chain: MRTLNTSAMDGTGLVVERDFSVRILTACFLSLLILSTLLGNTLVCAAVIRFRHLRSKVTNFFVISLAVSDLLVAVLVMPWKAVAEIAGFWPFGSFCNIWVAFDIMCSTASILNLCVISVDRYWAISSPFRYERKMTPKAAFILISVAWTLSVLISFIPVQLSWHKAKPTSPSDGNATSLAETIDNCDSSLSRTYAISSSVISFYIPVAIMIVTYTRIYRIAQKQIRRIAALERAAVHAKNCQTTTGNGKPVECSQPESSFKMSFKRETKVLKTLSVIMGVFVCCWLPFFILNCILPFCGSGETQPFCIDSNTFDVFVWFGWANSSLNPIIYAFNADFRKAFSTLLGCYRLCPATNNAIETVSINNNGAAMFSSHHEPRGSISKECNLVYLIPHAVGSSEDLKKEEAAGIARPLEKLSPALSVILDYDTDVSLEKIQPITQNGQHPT

T3: dopamine D2 receptor (long isoform), C-terminally tagged with Renilla luciferase variant 8, P14416
T3 chain: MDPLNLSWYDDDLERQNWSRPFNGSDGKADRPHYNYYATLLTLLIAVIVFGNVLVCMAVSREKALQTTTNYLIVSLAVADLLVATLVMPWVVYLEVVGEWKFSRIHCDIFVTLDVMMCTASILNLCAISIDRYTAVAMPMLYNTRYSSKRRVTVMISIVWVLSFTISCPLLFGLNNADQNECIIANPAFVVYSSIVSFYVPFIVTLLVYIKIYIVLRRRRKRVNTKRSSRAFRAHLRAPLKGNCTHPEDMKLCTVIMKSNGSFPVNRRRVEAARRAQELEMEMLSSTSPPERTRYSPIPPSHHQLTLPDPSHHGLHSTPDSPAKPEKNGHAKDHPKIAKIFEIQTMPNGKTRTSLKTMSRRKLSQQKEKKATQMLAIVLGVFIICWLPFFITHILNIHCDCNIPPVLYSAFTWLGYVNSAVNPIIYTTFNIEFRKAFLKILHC

T4: HA-tagged dopamine D2 receptor, P14416
T4 chain: T3 chain

B1: Venus-tagged arrestin-3 A87V base mutant, P32120 K313A (protein)
chain: MGEKPGTRVFKKSSPNCKLTVYLGKRDFVDHLDKVDPVDGVVLVDPDYLKDRKVFVTLTCAFRYGREDLDVLGLSFRKDLFIANYQVFPPTPNPPRPPTRLQERLLRKLGQHAHPFFFTIPQNLPCSVTLQPGPEDTGKACGVDFEIRAFCAKSLEEKSHKRNSVRLVIRKVQFAPEKPGPQPSAETTRHFLMSDRSLHLEASLDKELYYHGEPLNVNVHVTNNSTKTVKKIKVSVRQYADICLFSTAQYKCPVAQVEQDDQVSPSSTFCKVYTITPLLSNNREKRGLALDGKLKHEDTNLASSTIVKEGANAEVLGILVSYRVKVKLVVSRGGDVSVELPFVLMHPKPHDHIALPRPQSAA
B2: Venus-tagged arrestin-3 A87V base mutant, P32120 E157A (protein)
chain: B1 chain with E157A, A313K
B3: Venus-tagged arrestin-3 A87V base mutant, P32120 F245A (protein)
chain: B1 chain with F245A, A313K
B4: Venus-tagged arrestin-3 A87V base mutant, P32120 G65P (protein)
chain: B1 chain with G65P, A313K
B5: Venus-tagged arrestin-3 A87V base mutant, P32120 G65del (protein)
chain: MGEKPGTRVFKKSSPNCKLTVYLGKRDFVDHLDKVDPVDGVVLVDPDYLKDRKVFVTLTCAFRYREDLDVLGLSFRKDLFIANYQVFPPTPNPPRPPTRLQERLLRKLGQHAHPFFFTIPQNLPCSVTLQPGPEDTGKACGVDFEIRAFCAKSLEEKSHKRNSVRLVIRKVQFAPEKPGPQPSAETTRHFLMSDRSLHLEASLDKELYYHGEPLNVNVHVTNNSTKTVKKIKVSVRQYADICLFSTAQYKCPVAQVEQDDQVSPSSTFCKVYTITPLLSNNREKRGLALDGKLKHEDTNLASSTIVKEGANKEVLGILVSYRVKVKLVVSRGGDVSVELPFVLMHPKPHDHIALPRPQSAA

Molecular target: T1, M2 muscarinic acetylcholine receptor, …
Test: BRET
Conditions: chain shown with the change; HEK293 arrestin 2/3 KO cells; agonist-induced minus basal BRET; average at 10 and 15 min; parent: est. 0.029; read off a plot

| response | Molecule |
| --- | --- |
| 0.032 | B1 |
| 0.026 | B2 |
| 0.031 | B3 |
| 0.023 | B4 |
| 0.019 | B5 |

Molecular target: T2, dopamine D1 receptor, C-terminally …
Test: BRET
Conditions: chain shown with the change; HEK293 arrestin 2/3 KO cells; agonist-induced minus basal BRET; average at 10 and 15 min; parent: est. 0.032; read off a plot

| response | Molecule |
| --- | --- |
| 0.033 | B1 |
| 0.042 | B2 |
| 0.042 | B3 |
| 0.033 | B4 |
| 0.019 | B5 |

Molecular target: T3, dopamine D2 receptor (long isoform), …
Test: BRET
Conditions: chain shown with the change; HEK293 arrestin 2/3 KO cells; agonist-induced minus basal BRET; average at 10 and 15 min; parent: est. 0.023; read off a plot

| response | Molecule |
| --- | --- |
| 0.025 | B1 |
| 0.023 | B2 |
| 0.027 | B3 |
| 0.019 | B4 |

Molecular target: T4, HA-tagged dopamine D2 receptor, P14416
Test: co-immunoprecipitation (quantified immunoblot)
Conditions: chain shown with the change; HEK293 arrestin 2/3 KO cells; 10 μM quinpirole; non-specific binding (no HA-D2R) subtracted; parent: est. 8.4; read off a plot

| response | Molecule |
| --- | --- |
| 2.7 | B5 |

Each molecule was assayed against dopamine D2 receptor (long isoform), C-terminally tagged with Renilla luciferase variant 8 (human) (UniProt P14416) (assay: FRET or BRET; in-cell BRET in HEK293 arrestin-2/3 KO cells co-transfected with Venus-arrestin-3 (acceptor) and receptor-RLuc8 (donor); 10 uM agonist (carbachol for M2R, isoproterenol for β2AR, dopamine for D1R, quinpirole for D2R), 5 uM coelenterazine h; net BRET (with minus without agonist), average at 10 and 15 min and time course). Conditions: not given.

| reduction of binding (net BRET) against A87V | Molecule |
| --- | --- |
| 80% | Venus-tagged arrestin-3 ΔG65 (on the A87V background) (from UniProt P32120 1-362) (natural protein) |
